This passage reports amyloid nucleation score results from the supplement of paper PMC12042874.

The nature of this series: amyloid nucleation score (Sup35N fusion, yeast selection) (log enrichment); library NNK2; higher = more nucleation; inactive = no reads after selection. In short, it runs like this: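 In psi-negative yeast, Sup35N fusions carrying peptides of 20 random codons were induced with 100 μM copper sulfate for 24 hours. The cells then grew 7 days at 30°C on medium lacking adenine and uracil, and plasmid inserts from input and output were Illumina-sequenced, excluding sequences with under 100 input reads. Nucleation score is the DiMSum log enrichment of output over input reads, centred on the mode score of non-aggregating sequences.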

± gives the uncertainty stated by the source.

As for MLNNRLNPLFARESGELLGA, the amyloid nucleation score stood at 0.871 ± 0.15.
In turn, YFNIYAVEIVLGIRLFNNVD displayed an amyloid nucleation score of 1.99 ± 0.067.
The same measure for ARMSFWRRRPLLLSLRRSGV: 0.379 ± 0.44.
The result for SLRWDYLHLVWRHAEGGYGK reads 6.678 ± 0.038; that for CNVHWGRL, 0.089 ± 0.8; that for KWDWICSVRCRVRSAYQMSN, “inactive”.
The result for CLCCYTIM reads 7.381 ± 0.044; that for WLCYRGEFRYFDPVGNDLRN, “inactive”; that for VSASFEFRFSSGKWACLWRG, 4.31 ± 0.057.
For NSMILDKNRDSTNFVSCFSY, the amyloid nucleation score is -1.6 ± 0.49.
Consider FKVRIVGPLTAGMVE, for which the amyloid nucleation score was -1.01 ± 0.34.
The result for FVDYVTCSQYVNIFRDTLGL reads -0.677 ± 0.38; that for ANMTSHEFRWKSN, -0.168 ± 1.1.
The result for CSDRSICFANSYFEF reads -0.101 ± 0.63; that for VGFVCDLTGMNMGRFFKCGN, “inactive”.
The result for FDLNYPSVSIIGKVLCSGPV reads “inactive”; that for SMPLASSMSKHNHWHLV, 0.13 ± 0.35; that for CVWHVF, “inactive”.
For the substance FFHYVNAQVRGWLCTVYIIR, the amyloid nucleation score was -0.574 ± 0.55.
The same measure for FSMRFRKVFICKMDIQQAYV: 0.13 ± 1.1; for HATLNPSSLSATSSNPACRL: 0.171 ± 0.31; for IFYKPVFSLFVIGSRMNGGI: 7.29 ± 0.054.
The same measure for LVLAASTFQYSGRGYASDML: 1.49 ± 0.29.
The result for NGLYVAIFSVNLFPPLTKYI reads 5.422 ± 0.053.
The substance FSIISGCFRNVVDLLRMLNL had an amyloid nucleation score of -1.2 ± 1.1.
The result for PYSVMTFEIT reads 0.486 ± 0.33.
The result for WHGQQDLDYYHFT reads “inactive”; that for EEVQAFI, -0.22 ± 0.48.
FVHFMRVAASRNTNFYNLLW: the amyloid nucleation score result is “inactive”.
For the substance CGNLSCPVGVCGIFRRPSTG, the amyloid nucleation score result was “inactive”.
The substance RIQDLMVLTEGYRRDVIGPG yielded an amyloid nucleation score of 0.533 ± 0.56.
The result for VTYLGACVYRCCEMSLVFRF reads -0.412 ± 0.63; that for DVQWTGPRPFPFV, 0.679 ± 0.4; that for YPVLN, -0.834 ± 0.49.
On to TFNVYTVSLDVCDYRGGHGL, for which the amyloid nucleation score came to 6.602 ± 0.049.
The same measure for SFMGLAMHRSLSSCSVRSWY: 0.199 ± 0.53.
The substance LFKCVSTGHYLLTFRVVVYG registered an amyloid nucleation score of -0.456 ± 0.39.
The same measure for IVNINYCFTFKVPNHNNSMK: 7.923 ± 0.04.
The substance YDLGLKFNSHLATWGGFYHW had an amyloid nucleation score of -0.746 ± 0.76.
The result for CSINLRAYPVLSRGATVACK reads 0.755 ± 0.55; that for FLIKAKGFYSSLLATGGIEK, “inactive”; that for NNFWFKLQIM, 6.18 ± 0.064.
Regarding WHIFRNYAFIRVSM, the amyloid nucleation score stood at 0.036 ± 0.46.
The result for FWCYELDNPDGYLIFLHQPV reads “inactive”.
Substance VHFCLKH showed an amyloid nucleation score of 0.241 ± 0.22.
The result for HNVYMVFYFAFFSPFMIRYI reads 3.44 ± 0.088; that for FSNLPGH, 1.98 ± 0.15.
VITVTPGGHVPWVLASNGNI came in with an amyloid nucleation score of -1.53 ± 0.78.
The same measure for MCGKFNTSSCIEIYRDSEFM: -0.432 ± 0.23; for PRCLDLLDIFV: 0.072 ± 1.1.
The result for VFYRASRSFKQSVRAPVGLR reads -0.675 ± 0.55; that for HSGFADFGRMEMIRDPTGRD, 1.96 ± 0.15.
Consider TLIIWLTSICVVSGFVLSGE, for which the amyloid nucleation score came to 0.137 ± 0.25.
The result for VQFTRSVRFTLQFCARSDKT reads 6.91 ± 0.045; that for LAPPKKAFISVKMSLDRYCV, -0.305 ± 0.26; that for KVRTLINLRSRVTLRYDLSI, -0.237 ± 0.24.
Take FRTQCHRAMDRASCRVLVRP: the amyloid nucleation score result is “inactive”.
The result for NPHGMLSTRSGSVFMPTIDT reads -0.742 ± 1; that for FKFYYVYYDITFYEC, -0.454 ± 0.28.
In turn, FATQGSHKAVLGRSVHHLCR showed an amyloid nucleation score of -0.447 ± 0.61.
PDRSTFRVYSLHWTFCEHRC: the amyloid nucleation score turned out to be 3.74 ± 0.1.
The result for MLRGSRWPSSGTFSCDDSKR reads -0.038 ± 0.45; that for WFNCEWEDEFIEGQRVVMTV, 1.44 ± 0.47; that for HISYVNSSRL, 4.05 ± 0.078.
The result for SSRRV reads 0.497 ± 0.56.
WGSEAHTDRVVQYWILALQR yielded an amyloid nucleation score of 1.19 ± 0.12.
The same measure for SWQDSLYRAQCFLCSWSKTV: -0.575 ± 0.34; for FTGIRRGLWLS: 0.405 ± 0.56; for DIWYLICLSQSSGLFLVGVM: -0.55 ± 0.79.
With LSSLYFSLFNYYLFNRFIFN, the amyloid nucleation score entry was “inactive”.
The same measure for NKRGQFMNMQLEKSLYFQGL: -1.15 ± 0.76.
The same measure for NKKIIYDQIFIRMGSFQLN: “inactive”.
The result for WTYDVQGREVCYVKPYLAMW reads 1.07 ± 0.32; that for LINPCVRLWLCNCIFTFESA, 7.872 ± 0.027; that for HNVEGRDRVVLMFSIKCCML, 5.92 ± 0.061.
Take YCITEVRWAVA: the amyloid nucleation score came to 5.61 ± 0.058.
The same measure for CVDSKWLYFGRWSTQVIDI: -0.196 ± 1.
The substance GCMLSRMNTGLSRLGLFFDS showed an amyloid nucleation score of -1.25 ± 0.55.
Substance FFPPFVNLGVGTYQV yielded an amyloid nucleation score of -1.37 ± 0.54.
The same measure for LPCGVSLALHSWENYILNRP: 0.55 ± 0.52; for FKINESSYVLWDGSSYCRAG: -0.711 ± 1.1.
The result for SSEEFNVCYYGDPYKSVRTR reads 0.341 ± 0.47; that for TLDYGIFTVVNSTLWLYRSV, “inactive”; that for GMCYGGKFDY, -0.356 ± 0.33.
The result for WIFFHGGRMRTCYRDAVGEV reads -0.484 ± 0.36; that for RLKCSYTGSALLGRSLGNPE, 0.29 ± 0.54; that for LVIKCFCA, 6.476 ± 0.031.
Substance RALEIALMLSTTCKSGFRRE displayed an amyloid nucleation score of 5.56 ± 0.06.
The same measure for AYHAMVCYINLFSDVYLHGY: 4.98 ± 0.089; for GETVGFKARFMLMHTSFLLR: 4.902 ± 0.045.
The result for KLNLGGCLMSRVYC reads 0.345 ± 0.16.
The result for FYRGM reads -0.547 ± 0.5; that for VWLFNLKGPLTRNLLHNLFA, -0.678 ± 0.63.
As for FLLTKSRCLEVFA, the amyloid nucleation score worked out at 4.68 ± 0.065.
Take RFRCTTSSLRGLFWPNTWKK: the amyloid nucleation score was -0.301 ± 0.76.
FEGWVWFIPEASEHSYEHVN yielded an amyloid nucleation score of -0.002 ± 1.
The result for NSLYIFMVKYP reads 3.96 ± 0.049; that for MEFSAKFIYFS, 1.48 ± 0.11.
The same measure for GVTFSSMLRPFSAIAKRLVV: 0.733 ± 0.56.
The same measure for FYTTRMYLVFSYFV: 3.29 ± 0.064; for MWGIRSYLVKVL: -0.291 ± 0.76.
Substance DFSMIGSEKVAPGKNPDASL returned an amyloid nucleation score of 0.22 ± 0.57.
